Test results: patent publication US20190231821A1 (published 2019)

Molecular target: T1, human endogenous retrovirus-E (HERV-E); CT-RCC-1 peptide peptide on HLA-A11 (human)
T1 peptide: ATWLGSKTWK
Assay: multimer staining

B1: HLA-A11 restricted HERV-E TCR (TCR, V domains shown)
Valpha: GIQVEQSPPDLILQEGANSTLRCNFSDSVNNLQWFHQNPWGQLINLFYIPSGTKQNGRLSATTVATERYSLLYISSSQTTDSGVYFCAVRGGADGLTFGKGTHLIIQP
Vbeta: DTEVTQTPKHLVMGMTNKKSLKCEQHMGHRAMYWYKQKAKKPPELMFVYSYEKLSINESVPSRFSPECPNSSLLNLHLHALQPEDSALYLCASSPPNEKLFFGSGTQLSVL
  binding result: recognises
